# Data taken from patent publication US6350431B1, “Compounds” (Nycomed Imaging AS, priority 1997, dated 2002).
# Experiments:
# HT-29 tumors [1] = test: Biodistribution of chromophore-polymer in HT-29 tumored mice after intravenous injection; assay type: in vivo, female immunodeficient mice; settings: for injected dose localized in the tumor: after one hour, solution in phosphate buffered saline injected
# Description: General Method Used For the Measurement of Chromophore-Polymer Distribution in the Mouse
# Tac:N:NIH(S)-nufDF, female immunodef icient mice
# Tac:Cr:NCr-nufBr, female immunodeficient mice
# HT29-Human Colon Carcinoma
# The mice were randomised into groups based on tumor volumes. On the day of the study, the test articles (Polymers 1,2) were injected into the mice via the tail vein. Chloroaluminium phthalocyanine tetrasulfonate was used as a reference compound (control) in one group of mice in these studies. […] The blood was collected by heart puncture and put into either EDTA or Lithium Heparin tubes. The samples were then spun down and the plasma was collected and weighed. The spleen, liver, kidneys, muscle and tumor were collected, rinsed with PBS and weighed in pre-tared tubes. The samples were then either refrigerated for immediate analysis or frozen at −20 degrees Celsius and subsequently analysed.
# B) Plasma Collection and Preparation
# Plasma was collected in tared Eppendorf tubes and the tubes were weighed. To each tube was added 1 mL of ethanol. The contents of the tubes were mixed with a vortex mixer and then micro-centrifuged at 14000 rpm for 2 min. The supernatant liquid was transferred by pipette into a clean and labelled Eppendorf tube. This procedure was repeated for all plasma samples. Each sample was transferred to a clean cuvette and the amount of chromophore was determined by absorbance at a predetermined wavelength. Concentration of the chromophore in the sample was determined by comparison with a standard curve generated from known concentrations of chromophore.
# C) Organ Collection and Preparation
# Organs were removed from the mice, placed in tared sample tubes, and the new weights were recorded. To each tube was added 1 mL of deionised water, and the organs were homogenised. The homogenate was transferred into a tared Eppendorf tube and the weight was recorded. To this homogenate was added 500 μl of ethanol, the mixture was mixed by vortex mixer, and the contents of the tube was centrifuged in a micro-centrifuge at 8000 rpm for 2 min. The supernatant was transferred by pipette into a clean Eppendorf tube. To the residual pellet was added 500 μl of ethanol, the mixture was mixed by shaking vigorously in a vortex mixer, and the sample was centrifuged again. The supernatants were combined, transferred to a clean cuvette, and the concentration of the chromophore was determined spectroscopically at pre-determined absorbance by comparison with the standard curve. The mean concentration of the chromophore in each organ was determined by regressional analysis.
# Solubility of Sudan III = assay type: physicochemical
# HT-29 tumors [2] = test: Photographic / visual light imaging of HT-29 tumors from mice 24 hours post injection of contrast agent; assay type: in vivo, female immunodeficient mice
# Description: FIG. 4 is a photograph taken under room fluorescent light of female immunodeficient mice with exposed human HT-29 tumors 24 hours post intravenous (tail vein) injection with 0.1 mg/(g body weight) in PBS of the blue contrast agent NC100526. The labeled sheet to the right of the mice was spotted with PBS solutions of several contrast agents of this invention and then dried in order to show how they appear under various illumination and imaging conditions. The tumors (indicated by arrows) have been sliced to expose their interiors as well as their exteriors.
# The light source was ambient fluorescent room light.
# The photograph was taken with black-and-white infrared film using irradiation at 780 nm from an array of light-emitting diodes. These conditions gave maximum absorption and contrast enhancement of NC100448 as evidenced by the darkened spot of contrast agent on the paper chart.
# FIGS. 8a and 8b are photographs of two views taken from different angles of HT-29 tumors sliced open and removed from mice at 24 hours post injection with 10 mg/(g body weight) of NC100505 in PBS and irradiated with 366 nm wavelength light. […] In the black and white photograph they appear as bright spots. Other organs and the skin appear normal.
# FIG. 10a is a photograph of a collection of excised tumors viewed under ambient fluorescent room light. The top row contains tumors resected from mice at 24 hours post i.v. injection with NC100505 in PBS. The second, third, and fourth rows are tumors resected from mice 24 hours post i.v. injection with PBS solutions of NC100526, NC100448, and NC100524, respectively. […]
# FIG. 11 is a photograph of a set of excised tumors irradiated with 780 nm infrared light that were removed from mice 24 hours post injection with PBS solutions of NC100448 (top row) and indocyanine green (bottom row). The image was recorded with an infrared sensitive CCD camera (Bischke, Type N-CCD-4024, fitted with a Computar TV Zoom lens 1:1.2/12.5-75) on VHS tape (Maxell HGX Plus) at 30 frames/sec using a Panasonic AG-1310P HQ Video Cassette Recorder with super 4-Head VHS SQPB). […]
# [3] = female immunodeficient mice with HT-29 tumors
# [4] = one hour post intravenous injection of phosphate buffered saline solution, mice with HT-29 tumors
# [5] = 6 hr after injection, Table 2, female immunodeficient mice with HT-29 tumors
# [6] = 48 hr after injection, Table 2, mice with HT-29 tumors
# [7] = within 24 hours, Table 2 experiment
# [8] = three hours post intravenous injection of phosphate buffered saline solution, mice with HT-29 tumors
# [9] = 3 hr, i.v. 0.05 mg/(g body weight) in PBS, HT 29 tumored mice
# [10] = 6 hr, i.v. 0.05 mg/(g body weight) in PBS, HT 29 tumored mice
# [11] = 24 hr, i.v. 0.05 mg/(g body weight) in PBS, HT 29 tumored mice
# [12] = at 24 hours, i.v. 0.05 mg/(g body weight) in PBS
# [13] = three hours versus one hour post intravenous injection
compound,measurement,setting,value
"Aluminum Chlorophthalocyanine Tetrasulfonyl Chloride Polymer With PEG5,000-α,ω-diamine [Polymer 2]",injected dose localized in the tumor,HT-29 tumors [1]; [3],2.5%
same,detection in the tumor,HT-29 tumors [1]; [4],detected in the tumor
ClAlPc(SO2NHPEG5000)4 [Example 20],injected dose localized in the tumor,HT-29 tumors [1]; [3],2.5%
chloroaluminum phthalocyanine tetrasulfonate [reference compound],detection in the tumor,HT-29 tumors [1]; [4],negligibly detected
"Aluminum Chlorophthalocyaninetetrasulfonyl Chloride Polymer With PEG3,400-α,ω-diamine [Polymer 1]",injected dose localized in the tumor,HT-29 tumors [1]; [3],4%
same,detection in the tumor,HT-29 tumors [1]; [4],detected in the tumor
Oc1ccc2ccccc2c1N=Nc1ccc(N=Nc2ccccc2)cc1 [Sudan III],solubility in sesame oil,Solubility of Sudan III,soluble in sesame oil
same,solubility in water,Solubility of Sudan III,very water insoluble
[NH(PEG3400)NHSO2PcAlCl (SO3H)2SO2]n [Example 18],injected dose localized in the tumor,HT-29 tumors [1]; [3],4%
"[PcAlCl(SO3H)3SO2NH]2[PEG 10,000] [NC100481]",Muscle,HT-29 tumors [1]; [5],10.3 ± 17.9 percent injected dose of the contrast agent per gram of tissue
same,Plasma,HT-29 tumors [1]; [5],7.4 ± 0.3 percent injected dose of the contrast agent per gram of tissue
same,Tumor,HT-29 tumors [1]; [5],21.0 ± 7.1 percent injected dose of the contrast agent per gram of tissue
same,Tumor,"HT-29 tumors [1]; 24 hr after injection, Table 2, mice with HT-29 tumors",16.6 ± 3.9 percent injected dose of the contrast agent per gram of tissue
same,Muscle,HT-29 tumors [1]; [6],59.5 ± 42.9 percent injected dose of the contrast agent per gram of tissue
same,Tumor,HT-29 tumors [1]; [6],9.1 ± 4.5 percent injected dose of the contrast agent per gram of tissue
same,concentration of contrast agent in the tumor (in words),"HT-29 tumors [1]; after 48 hours, Table 2 experiment",remained at a high concentration
same,clearance of contrast agent from the blood (in words),HT-29 tumors [1]; [7],cleared
same,clearance of contrast agent from the muscle (in words),HT-29 tumors [1]; [7],cleared
"CC1(C)C(/C=C/C=C/C=C/C=C2\N(CCCCS(=O)(=O)O)c3ccc4ccccc4c3C2(C)C)=[N+](CCCCS(=O)(=O)[O-])c2ccc3ccccc3c21 [indocyanine green, reference compound]",detection in the tumor,HT-29 tumors [1]; [4],negligibly detected
same,detection in the tumor,HT-29 tumors [1]; [8],negligibly detected
"Bisthioether 2:1 Dye:Polymer Reaction Product Between 2-[2-[2-chloro-3-[[1,3-dihydro-1,1,-dimethyl-3-(3-sulfopropyl)-2H-benz[e]indol-2-ylidene]ethylidene]-5-(ethoxycarbonyl)-1-cyclohexen-1-yl]ethenyl]-1,1-dimethyl-3-(3-sulfopropyl)-1H-benz[e]indolium, Inner Salt, Sodium Salt and Disodium PEG3,400-α,ω-dithiolate [NC100448]",Plasma,HT-29 tumors [1]; [9],14.33 ± 1.33 percent injected dose of the contrast agent per gram of tissue
same,Tumor,HT-29 tumors [1]; [9],5.57 ± 0.73 percent injected dose of the contrast agent per gram of tissue
same,Plasma,HT-29 tumors [1]; [10],8.44 ± 1.33 percent injected dose of the contrast agent per gram of tissue
same,Tumor,HT-29 tumors [1]; [10],8.6 ± 1.53 percent injected dose of the contrast agent per gram of tissue
same,Plasma,HT-29 tumors [1]; [11],0.46 ± 0.40 percent injected dose of the contrast agent per gram of tissue
same,Tumor,HT-29 tumors [1]; [11],7.53 ± 0.74 percent injected dose of the contrast agent per gram of tissue
same,clearance of contrast agent from the blood (in words),HT-29 tumors [1]; [12],largely cleared
same,concentration of contrast agent in the tumors (in words),HT-29 tumors [1]; [12],remained relatively high
same,contrast agent in the muscle (in words),HT-29 tumors [1]; [12],not increased
same,detection in the tumor,HT-29 tumors [1]; [4],detected in the tumor
same,detection in the tumor,HT-29 tumors [1]; [8],detected in the tumor
same,"concentration of the contrast agent in the blood, FIG. 3B relative to FIG. 3A",HT-29 tumors [1]; [13],decreased
same,"concentration of the contrast agent in the tumor, FIG. 3B relative to FIG. 3A",HT-29 tumors [1]; [13],increased
same,"appearance of tumors, black-and-white infrared film, irradiation at 780 nm","HT-29 tumors [2]; 24 hours after injection of 0.05 mg/(g body weight) in PBS, versus control tumors",uniformly darker than control tumors
same,"appearance of excised tumors irradiated with 780 nm infrared light, infrared sensitive CCD camera","HT-29 tumors [2]; 24 hours post injection in PBS, compared to tumors from mice injected with ICG",significantly darker
same,contrast agent / darkening along the tumor edges,"HT-29 tumors [2]; 24 hours post injection, sliced tumors",do not show darkening around the edges
